# In article PMC12728182, “Hierarchical folding-upon-binding of an intrinsically disordered protein” (Nature Communications, 2025):
# B1: POSH_(315-380), shorter construct of human POSH comprising MRE1 and MRE2 (domain or fragment)
# chain: GHMWSQASQNRHSMEISPPVLISSSNPTAAARISELSGLSCSAPSQVHISTTGLIVTPPPSSPVTTGPSF
# Columns and labels:
# Details in all cases: both partners purified
# [1] = target: T1, Human Rac1 (residues 1-177), GMPPNP-loaded (human, UniProt P63000 1-177); test: ITC; Kd at 25 °C not measured directly (binding enthalpy close to 0); estimated through linear extrapolation of the Gibbs free energy measured by ITC at 5, 10, 15 and 35 °C; same buffer
# [2] = target: T1, Human Rac1 (residues 1-177), …; test: NMR 15N CEST; 15N POSH_(315-380) (500 uM) with 20% molar ratio of Rac1 (100 uM), 950 MHz, four B1 fields (5.2, 10.3, 20.5, 68.6 Hz); global fit with a linear 4-site exchange model (ChemEx), total bound population fixed from Kd = 24 uM at 25 °C
# [3] = target: T1, Human Rac1 (residues 1-177), …; test: ITC; POSH_(315-380) (1000 uM) titrated into GMPPNP-loaded Rac1 (125 uM), 35 °C, 50 mM HEPES pH 6.9, 150 mM NaCl, 5 mM MgCl2, 2 mM TCEP; model 'One set of sites'; duplicates
binder,measurement,setting,value
B1,Kd,[1],24 µM
same,"kAB (intermediate A to B, folding of the MRE1 helix on Rac1, 4-site model)",[2],72 s⁻¹
same,"kBC (intermediate B to final complex C, folding of MRE2 on Rac1, 4-site model)",[2],89 s⁻¹
same,Kd,[3],21 to 46 µM
